Patent US20260116983A1 (University of California, published 2026)
Residue numbers refer to the chain shown, from its start.

T1: cynomolgus uPAR (recombinant) (cynomolgus monkey, UniProt Q9GK78 23-303, limits assumed)
T1 construct: also called cyno uPAR; AF647-cyno uPAR
T1 sequence (looked up): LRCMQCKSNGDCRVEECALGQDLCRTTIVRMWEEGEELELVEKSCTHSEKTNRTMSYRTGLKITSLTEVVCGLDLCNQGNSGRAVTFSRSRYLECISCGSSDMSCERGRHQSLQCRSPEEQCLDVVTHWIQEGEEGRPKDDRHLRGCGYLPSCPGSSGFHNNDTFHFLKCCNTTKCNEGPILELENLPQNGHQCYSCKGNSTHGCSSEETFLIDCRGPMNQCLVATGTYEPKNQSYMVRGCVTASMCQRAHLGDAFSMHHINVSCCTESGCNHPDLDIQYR

B1: Antibody 3159 (antibody, human IgG1, V domains shown)
VH: QVTLKESGPGILQSSLTLSLTCSLSGFSLSTSGMGVSWIRQPSGKGLEWLAHIYWDDDKRYNPSLKTRLTISKDASRDQVFLKIISVDTADTGTYYCGRRVRNYFSGTSYWYFDVWGTGTTVTVSS
VL: DVLMTQTPLSLSVSLGDQASISCRSSQNILHRTGNTYLEWYLQKPGQSPKLLIYKVSNRFSGVPDRFSGSGSGTDFTLKISRLEAEDLGVYYCFQGSYVPFTFGSGTKLEMK
notes: Chimeric: mouse VH/VL linked to Herceptin (trastuzumab) human IgG1 / kappa constant regions
B2: Antibody 3595 (antibody, human IgG1, V domains shown)
VH: EVQLRQSGPELVKPGASVKISCKASGYTFTDYYMNWVKQSHEKSLEWIGNINPNNGGTDYNQKFKGKATLTVDKSSSTAYMELRSLTSEDSAVYYCARSYGSRFPYWGLGTLVTVSA
VL: DIQMTQTTSSLSASLGDRVTISCRASQDITNYLSWYQQKPDGTVKLLIFYTSFLQSGVPLRFSGSGSGADYSLTISNLEQEDFATYFCQQGHTLPWTFGGGTKLEIK
notes: as for B1
B3: Antibody 11857 (antibody, human IgG1, V domains shown)
VH: B2 VH
VL: B2 VL with S52A, F53V, V58F
B4: Antibody 8163 (antibody, human IgG1, V domains shown)
VH: EVQLVESGGGLVQPGESLTLSCDSNEFDFPSHDMSWVRKTPEKRLELVAAIDSDGGLTYYSNSRERRFIISRDNTKNTLYLQMRSLRSEDTALYYCARRRASYWYFDVWGTGTTVTVSS
VL: DILLTQSPAILPVSPGERVSFSCRASQNIGTSIHWYQQRTNGSPRLLIKYASESISGIPSRFSGSGSGTDFTLSINGVESEDIGDYYCQQSNSWPTFGGGTKLEIK
notes: as for B1

Key:
[1] = target: T1, cynomolgus uPAR (recombinant); experiment: BLI (Octet HTX)
Procedure: (§1) Kinetic constant ranges for Octet HTX were between 1 mM to 10 pM.

[2] = target: T2, human uPAR (recombinant protein used in ELISA and BLI) (human, UniProt Q03405 23-305, limits assumed); experiment: BLI (Octet HTX)
T2 construct: Whole entry named; also called biotinylated human uPAR
T2 sequence (Q03405 23-305 limits assumed): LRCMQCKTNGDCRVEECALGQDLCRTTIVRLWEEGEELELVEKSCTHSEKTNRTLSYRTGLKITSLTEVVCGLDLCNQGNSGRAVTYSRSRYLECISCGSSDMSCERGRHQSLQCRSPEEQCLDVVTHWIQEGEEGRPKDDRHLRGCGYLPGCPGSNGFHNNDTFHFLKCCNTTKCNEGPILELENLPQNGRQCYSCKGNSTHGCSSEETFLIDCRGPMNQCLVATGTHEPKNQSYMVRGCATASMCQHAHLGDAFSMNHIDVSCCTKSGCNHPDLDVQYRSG
Procedure: as §1

[3] = target: T2, human uPAR (recombinant protein used in …); experiment: ELISA, plate-coated human uPAR
Procedure: (§2) To ensure the cross-reactivity of the 12 lead candidates was maintained with the Herceptin constant region, their binding to human and cyno uPAR was evaluated by ELISA (FIG. 3A).
(§3) Nunc MaxiSorp™ flat-bottom 96-well plates were coated with human or cyno uPAR (3.19 μg/mL) at 4° C. overnight, and plates were washed with wash buffer and blocked with 5% non-fat dry milk. A standard log serial dilution of each antibody candidate was added to the uPAR-coated plates and incubated at 4° C. overnight. Plates were washed three times and incubated with 50 μL of HRP-conjugated goat anti-human (H+L) antibody (Biorad). After a two-hr incubation, plates were washed, and 100 μL of 1-Step™ Turbo TMB-ELISA Substrate Solution (Thermo Scientific) was added to each well. The reaction was quenched with 2M H₂SO₄ for 5 min at room temperature, and the optical density of each well was measured at 450 nm using a SpectraMax190 microplate reader.

[4] = target: T3, human uPAR displayed on the surface of MDA-MB-231 cells (human, UniProt Q03405 23-305); experiment: flow cytometry (FACS) on MDA-MB-231 cells
T3 construct: whole, on cells; also called cell-surface uPAR; cellular uPAR
T3 sequence (Q03405 23-305): as the sequence (Q03405 23-305 limits assumed) above
Source text: Antibodies generated by immunizing animals with suPAR, which lacks the cell surface anchoring motif, can target protein regions that are not accessible for membrane-bound uPAR. […] Thus, FACS was applied to evaluate the cell-surface uPAR recognition by each antibody candidate under different concentrations of MDA-MB-231 cells, a triple-negative breast cancer cell line with high uPAR expression (FIG. 2).
MDA-MB-231 cells were harvested with TrypleE and resuspended in FACS buffer (PBS+1% BSA) to 2×10⁶ cells/mL before being aliquoted to a 96-well plate (100 μL, 2×10⁵ cells/well). Cells were pelleted by centrifuging the microplate for 5 min at 400 RCF and resuspended in PBS containing serially diluted antibodies to a maximum concentration of 600 nM, followed by a 50 min incubation at 4° C. Cells were then washed three times with PBS and incubated with an AlexaFluor488-conjugated goat anti-human IgG for 50 min at 4° C. in the dark. Finally, cells were washed twice with FACS buffer and resuspended in 80 μL for FACS analysis in a Bio-rad S3e Cell Sorter.

[5] = target: T3, human uPAR displayed on the surface of …; experiment: cell-based or functional assay
[6] = target: T1, cynomolgus uPAR (recombinant); experiment: ELISA, plate-coated cyno uPAR
Procedure: as §2, §3

[7] = target: T3, human uPAR displayed on the surface of …; experiment: flow cytometry on MDA-MB-231 cells
[8] = target: T1, cynomolgus uPAR (recombinant); experiment: BLI (Octet HTX); repeated row of the table
Procedure: as §1

[9] = target: T2, human uPAR (recombinant protein used in …); experiment: BLI (Octet HTX); repeated row of the table
Procedure: as §1

[10] = target: T3, human uPAR displayed on the surface of …; experiment: flow cytometry on MDA-MB-231 cells; repeated row of the table
[11] = target: T3, human uPAR displayed on the surface of …; experiment: cell-based or functional assay; remark: listed apart in the source

Binder	Kd [1] [nM]	Kd [2] [nM]	EC50 [3] [nM]	Cellular recognition Max % [4] [%]	EC50 [4] [nM]	ADC Cytotoxicity EC50 [5] [nM]	ADC Cytotoxicity Max % [5] [%]	ADCC NK-92 EC50 [5] [nM]	ADCC NK-92 Max % [5] [%]	ADCC PBMCs EC50 [5] [nM]	ADCC PBMCs Max % [5] [%]	Adhesion blocking EC50 [5] [nM]	EC50 [6] [nM]	EC50 [7] [µg/mL]	Kd [8] [nM]	Kd [9] [nM]	EC50 [10] [µg/mL]	ADCC PBMCs EC50, fold lower than 2G10 [11] [fold]
B1	934	< 0.01	0.53	1830	0.916	0.75	32	0.887	28.2	0.11	47.4	1610	0.27	0.188	–	–	–	–
B2	–	–	0.05	2280	0.453	0.66	34.8	0.2	21.9	0.1	55.6	> 10000	0.1	–	–	–	–	–
B3	8.48	6.37	0.52	1940	2.07	0.76	35.2	5.59	27.2	0.35	52	940	0.18	0.545	8.48	6.37	0.545	–
B4	–	–	0.41	2330	0.69	0.57	28.7	1.14	18.8	0.09	57.5	5400	0.15	–	–	–	–	10 to 96
